Results from paper PMC9733933.

Biological target: SARS-CoV-2 nsp7-11 polyprotein (SARS-CoV-2)
Assay: SEC-MALS

SARS-CoV-2 nsp7-11 polyprotein (domain or fragment)
stoichiometry N: 2
